Assays:
[1] = target: RSV F protein of recombinant mKate-RSV, subtype A (strain A2) (Respiratory syncytial virus subtype A …, UniProt P03420 26-574); assay: cell-based or functional assay
[2] = target: RSV F protein of recombinant mKate-RSV, subtype B (18537) (Respiratory syncytial virus subtype B …, UniProt P13843 26-574); assay: cell-based or functional assay
[3] = target: T1, RSV F ectodomain stabilized in the postfusion conformation (F ΔFP), subtype A (Respiratory syncytial virus subtype A, UniProt P03420 26-109; P03420 147-524); assay: BLI, IgG on AHQ sensor, 100 nM antigen
T1 construct: extracellular domain; trimer; furin-cleaved; also called Postfusion subtype A

[4] = target: T2, RSV F ectodomain stabilized in the postfusion conformation (F ΔFP), subtype B (Respiratory syncytial virus subtype B, UniProt P13843 26-109; P13843 147-524); assay: BLI, IgG on AHQ sensor, 100 nM antigen
T2 construct: extracellular domain; trimer; also called Postfusion subtype B; postF subtype B

Binder	Neut IC50 subtype A [1]	Neut IC50 subtype B [2]	Kd [3]	Kd [4]
ADI-14500 (antibody, V domains shown, full-length IgG (yeast-expressed); also called Antibody Number 61; Ab# 61) VH: EVQLLESGGGLVKPGGSLRLSCAASGFIFNNAWMTWVRQAPGRGLEWVGRIKTNADGGTADYSTPVKGRFAISRDDSTNTLYLQMNSLKTEDTAVYYCTTGPPYKYSDSTGYSVVDYWGQGTLVTVSS VL: SYELTQPPSASGTPGQRVTISCSGSSSNIGSNYVYWYQQLPGTAPKLLIYSTNQRPSGVPDRFSGSQSGTSASLAISGLRSEDEADYYCAAWDDRLSGPVFGGGTQLTVL	0.415 mg/L	0.552 mg/L	0.714 nM	0.127 nM
ADI-14504 (antibody, V domains shown, full-length IgG (yeast-expressed); also called Antibody Number 65; Ab# 65) VH: EVQLVESGGGLVQPGGSLRLSCAASGFPFSRYNMNWVRQAPGKGLEWVSYISSGSRSIYYADSVKGRFTISRDNAKNSLYLQMNSLRAEDTAVYYCARDLSGSPAYSGSWVWGQGTLVTVSS VL: not shown	2.81 mg/L	13.4 mg/L	0.583 nM	0.52 nM
ADI-14491 (antibody, V domains shown, full-length IgG (yeast-expressed); also called Antibody Number 52; Ab# 52) VH: EVQLVESGGGVVQPGRSLRLSCAASGFTFSDHAMYWVRQAPGKGLEWVALISFDGRNIYYADSVKGRFTISRDNSKNTLYLQMNSLRAEDTAVYYCARDQWLVPDYWGQGTLVTVSS VL: QSVLTQPASVSGSPGQSITISCTGTSSDVGGYNYVSWYQQHPGNAPKLMIYEVSKRPSGVPDRFSGFKSGNTASLTVSGLQAEDEADYYCSSYAGSNSVFGTGTKVTVL	0.105 mg/L	0.102 mg/L	0.238 nM	0.158 nM
ADI-14525 (antibody, V domains shown, full-length IgG (yeast-expressed); also called Antibody Number 85; Ab# 85) VH: EVQLLESGGGVVQPGRSLRLSCTASGFTFSDHAMYWVRQAPGKGLEWVALISFDGRNIYYADSVKGRFTISRDNSKNTLYLQMNSLRAEDTAVYYCARDQWLVPDYWGQGTLVTVSS VL: QSVLIQPASVSGSPGQSITISCTGTSSDVGGYNYVSWYQQHPGNAPKLMIYEVSKRPSGVPDRFSGFKSGNTASLTVSGLQAEDEADYYCSSYAGSNSVFGTGTQLTVL	0.135 mg/L	0.108 mg/L	0.23 nM	0.149 nM
ADI-14494 (antibody, V domains shown, full-length IgG (yeast-expressed); also called Antibody Number 55; Ab# 55) VH: EVQLVESGGGVVQPGRSLRLSCAASGFTFSDHAMYWVRQAPGKGLEWVALISFDGRNIYYADSVKGRFTISRDNSKNTLYLQMNSLRAEDTAVYYCARDQWLVPDYWGQGTLVTVSS VL: QSALTQPASVSGSPGQSITISCTGTSSDVGGYNYVSWYQQHPGNAPKLMIYEVSKRPSGVPDRFSGFKSGNTASLTVSGLQAEDEADYYCSSYAGSNSVFGTGTKVTVL	0.084 mg/L	0.089 mg/L	0.24 nM	0.155 nM
ADI-14461 (antibody, V domains shown, full-length IgG (yeast-expressed); also called Antibody Number 24; Ab# 24) VH: EVQLVESGGGVVQPGRSLRLSCAASGFTFSDHAMYWVRQAPGKGLEWVALISFDGRNIYYADSVKGRFTISRDNSKNTLYLQMNSLRAEDTAVYYCARDQWLVPDYWGQGTLVTVSS VL: LPVLTQPASVSGSPGQSITISCTGTSSDVGGYNYVSWYQQHPGNAPKLMIYEVSKRPSGVPDRFSGFKSGNTASLTVSGLQAEDEADYYCSSYAGSNSVFGTGTKLTVL	0.129 mg/L	0.152 mg/L	0.231 nM	0.156 nM
ADI-14499 (antibody, V domains shown, full-length IgG (yeast-expressed); also called Antibody Number 60; Ab# 60) VH: QVQLVQSGPALVKPTQTLTLTCTFSGFSLTTRGVGVGWIRQTPGKALECLGFIYWDDDMNYNPSLRGRVTITRDTSKNQVVLTMTNMAPVDTGTYYCVHSDLYDSSGYYLYYFDYWGQGTLVTVSS VL: DIRLTQSPSSLSASVGDRVTITCRASQPIASYLNWYQQKPGKAPKLLIYAASNLQSGVPSTFSGRGSGTDFSLTISTLQPEDIATYYCQQSYTSPYTFGQGTKVEIK	> 10 mg/L	> 10 mg/L	0.415 nM	2.99 nM
ADI-14498 (antibody, V domains shown, full-length IgG (yeast-expressed); also called Antibody Number 59; Ab# 59) VH: EVQLVESGPTLVKPTQTLTLTCTFSGFSLTTRGMGVGWIRQPPGRSLEWLAVIYWDGDVRYSPSLKGRLTITKDTPKNQVVLTMTNMDPVDTATYYCVHSDLYDRNAYYLHYFDFWGQGTLVTVSS VL: DIRLTQSPSSLSASVGDRVTITCRASQIIASYLNWYQQKPGKAPNLLIFAASSLQSGVPSRFRGSGSGTDFTLTISSLQPEDFATYYCQQSYSIPYTFGQGTKLEIK	> 10 mg/L	> 10 mg/L	0.412 nM	2.27 nM
ADI-14506 (antibody, V domains shown, full-length IgG (yeast-expressed); also called Antibody Number 67; Ab# 67) VH: QVQLVQSGAEVKKPGSSVKVSCKVAGGSFSNYAIAWLRQAPGQGLEWMGGIIPAFNRAMYARKFQDRVTITAYASTTTAYLDITGLRSEDTALYYCARPAGDFGDLKWVRSPFDYWGQGTLITVSS VL: DIVMTQTPGTLSVSPGERATLSCRASQDVGINLAWYQQKPGQAPRLLIYGASTRATDVPAKFSGSGSGTDFTLTISSLQSEDFGVYYCQEYNDWPPQLSFGPGTKVDIK	> 10 mg/L	6.25 mg/L	13.1 nM	24.5 nM
ADI-14497 (antibody, V domains shown, full-length IgG (yeast-expressed); also called Antibody Number 58; Ab# 58) VH: QITLKESGPTLVKPTQTLTLTCTFSGFSLTTRGVGVGWIRQPPGKALEFLGFIHWDDDKTYSPSLRRRLTITKDTSNNEVVLTMTNMDPVDTATYYCVHSDLYDSGGYYLYYFDYWGQGTLVTVSS VL: EIVMTQSPSSLSASVGDRVTITCRASQPIPSYVNWYQQRPGKAPKLLIYAASNLQSGVSSKFSGRGFGTDFTLTIDTLQPEDFATYYCQQVYTSPYTFGQGTKLEIK	0.115 mg/L	0.116 mg/L	0.358 nM	4.82 nM
ADI-14507 (antibody, V domains shown, full-length IgG (yeast-expressed); also called Antibody Number 68; Ab# 68) VH: QITLKESGPTLVKPTQTLTLTCTLSGFSLSTPRMGVGWIRQPPGKALEWLALIDWDDDRRYSPSLKTRLTITKDTSKNQVVLRMTDMDPVDTGTYYCVHSDVYTTGGYYLYYFDYWGQGTLVTVSS VL: DIQVTQSPSSLSASVGDRVTITCRASQTIPSYLNWYQHKPGKAPQLLIYAASNLRSGVPPRFRGSGSGTDFTLTVSSLQPEDFATYFCQQSYSSPYTFGQGTKLEIK	0.319 mg/L	0.173 mg/L	0.266 nM	0.413 nM
ADI-14492 (antibody, V domains shown, full-length IgG (yeast-expressed); also called Antibody Number 53; Ab# 53) VH: EVQLVESGGGLVRPGGSLGLSCSASGFIFSNAWMTWVRQAPGKGLEWVGHIKSKVNGGTTAYGAPVKGRFTISRDDSRNTLFLQMNSLKTEDTGVYYCTTGPPYQYFDDSGYSVVDYWGQGTLVTVSS VL: QSVVTQPPSASGTPGQRVTISCSGSDSNIGTDYFYWYQQLPGSAPKLLIYGSNQRPSGVPDRFSGSQSGSAASLAISGLRSEDDADYYCAAWDDSLGGPVFGGGTKVTVL	0.204 mg/L	0.681 mg/L	0.166 nM	0.111 nM
ADI-14438 (antibody, V domains shown, full-length IgG (yeast-expressed); also called Antibody Number 1; Ab# 1) VH: QVQLVQSGAEVKKPGASVKVSCRASGFVFTSYDINWVRQAPGQGLEWMGRMNAHTGQVTYAQKFQDKVSMTRDVSITTAYLELSRLASEDTAVYYCARPDINWGQDAFDVWGQGTMVTVSS VL: DIRMTQSPSTLSASIGARVTITCRASQNIGNFLAWYQQKPGKAPKLLIYKASTLDPGVPSRFSGSGSGTEFTLTITSLQPDDFATFYCQQYKSDPTFGQGTKVEIK	0.289 mg/L	0.237 mg/L	11.8 nM	8.29 nM
ADI-14510 (antibody, V domains shown, full-length IgG (yeast-expressed); also called Antibody Number 71; Ab# 71) VH: QVQLQQWGAEVKKPGSSVKVSCKASGVALSSVAISWVRQAPGQGLEWMGGILPGFDKVRFAQEFENRATLTADTARDIAYMELSGLRSDDTAVYYCAIIDPQDCTSASCFWVNWLDPWGQGTLVTVSS VL: ETTLTQSPGTLTVSPGERATLSCRASQSIIRNNLAWYQQKPGQAPRLLIYAASNRATDIPDRFSGSGSGTDFTLTISRLEAQDFAVYFCQQYGTSPITFGQGTKVEIK	> 10 mg/L	> 10 mg/L	0.783 nM	0.619 nM
ADI-14443 (antibody, V domains shown, full-length IgG (yeast-expressed); also called Antibody Number 6; Ab# 6) VH: QVQLVQSGTEVKKPGSSVKVSCKASGGTFGSYAVIWVRQAPGQGLEWMGHFIPVFATTNKAQKFQGRLTLSTDESTGTVYMELSSLRSEDTAVYFCATKRYCSDPSCHGLWYFDLWGRGTLVTVSS VL: DIQLTQSPLSLPVTPGEPASISCRSSQSLLDSDDGNTYLDWYLQKPGQSPQVLIYMLSYRASGVPDRFSGSGSGTDFTLEISRVEAEDVGVYYCMQRVEFPYTFGQGTKLEIK	0.047 mg/L	0.063 mg/L	0.19 nM	0.137 nM
ADI-14471 (antibody, V domains shown, full-length IgG (yeast-expressed); also called Antibody Number 34; Ab# 34) VH: QVQLVQSGAEVKKPGSSVKVSCKASGGTFGSYAVIWVRQAPGQGLEWMGHIIPVFGTINNAQKFQGRLTLSADESTGTVYMGLSSLRSDDTAVYFCATKRYCSDPSCHGLWYFDLWGRGTLVTVSS VL: DIRLTQSPLSLPVTPGEPASISCRSSQSLLDSDDGNTYLDWYLQKPGQSPQVLIYMLSYRASGVPDRFSGSGSGTDFTLKISRVEAEDVGVYYCMQRAEFPYTFGQGTKLEIK	0.096 mg/L	0.116 mg/L	0.212 nM	0.15 nM
ADI-14495 (antibody, V domains shown, full-length IgG (yeast-expressed); also called Antibody Number 56; Ab# 56) VH: QITLKESGPTLVKPTQTLTLTCSFSGFSLTTRGVGVGWVRQPPGKALECLGFVYWDDDKRYSPSLRSRLTISEDTSKNQVVLTMTNMDPLDTATYYCVHSDLYDRGGYYLFYFDYWGQGTLVTVSS VL: DIVLTQSPSSLSASVGDRVTITCRASQPIASYLNWYQHKPGKAPKLLIYAASSLQSGVSSTFSGRGSGTDFTLTITALQPEDFAIYYCQQSYTFPYTFGQGTKVDIK	0.864 mg/L	17.4 mg/L	0.367 nM	1.71 nM
